Laboratory results published in patent US20220001000A1 (Regeneron, published 2022).

B1: H4sH17675P (antibody, V domains shown)
VH: EVQLVESGGGLVQPGASLRLSCEASGFTLSFYAMHWVRQAPGKELEYVSGISGNGNSIYYRDSVKGRFTISRDNSKNTLYLQMGSVGAEDMAVYYCARSYSSGNSYYYYYGMDVWGQGTTVTVSS
VL: DIQMTQSPSSLSASVGDRITITCRASQSISSYLNWYQQKPGKAPNLLIYAASNLQSGVPSRFSGSGSGTDFTLTISSLQPEDFATYYCQQSYSTPPITFGQGTRLEIKR
B2: H4sH17670P (antibody, V domains shown)
VH: EVQLVESGGDLVQPGTSLRLSCEASGFTLSFYAMYWVRQAPGKELELVSGISGNGESMFYGNSVKGRFSISRDNSKNTLYLQMGSVRAEDMAVYYCARAYASGNSYFFYYGMDVWGQGTTVTVSS
VL: not shown
B3: H4sH17672P (antibody, V domains shown)
VH: EVQLVESGGGLVQPGASLRLSCEASGFTLSFYSMHWVRQAPGRELEYVSGISGNGNNIYYRDSVKGRFTISRDNSKNTLNLQMGSVRAEDMGVYYCARSYSSGNSYNYYYGMDVWGQGTTVTVSS
VL: DIQMTQSPSSLSASVGDRVTITCRASQTISSYLNWYQQKPGKAPKLLIYAVSNLQSGVPSRFSGSGSGTDFTLTISSLQPEDFATYYCQQSYSTPPITFGQGTRLEIK
B4: H4sH17363N (antibody, V domains shown)
VH: EVQLLESGGGLVQPGGSLRLSCAASGFTFSSYAMTWVRQAPGMGLEWVSVISGSGSETYYADSVKGRFTISRDNSKNTLYLQMNSLRAEDTAVYYCVKDSSYRSSSRAYYYYGMDVWGLGTTVTVSS
VL: DIQMTQSPSSLSASVGDRVTITCRASQSISSYLNWYQQKPGKAPKLLIYAVSILQSGVPSRFSGSGSGTDFTLTINSLQPEDFATYSCQQTYSTPPITFGQGTRLEIKR
B5: H4sH17364N (antibody, V domains shown)
VH: EVQLLESGGGLVQPGGSLRLSCAASGFTFSSYAMTWVRQAPGKGLEWVSVISGSGSETYYADSVKGRFTISRDNSKNTLYLQMNSLRAEDTAVYYCVKDSSYRSSSRAYYYYGMDVWGLGTTVTVSS
VL: DIQMTQSPSSLSASVGDRVTITCRASQSISSYLNWYQQKPGKAPKLLIYAVSILQSGVPSRFSGSGSGTDFTLTISSLQPEDFATYSCQQTYSTPPITFGQGTRLEIKR
B6: H4sH17930N (antibody, V domains shown)
VH: EVQLVESGGGLVQPGGSLRLSCAASGFTFSYYALHWVRQAPGKGLEYVSAISGNGGSTYYADSVKGRFTISRDKSMSTVYLQVGSLRAEDMAVYYCARSYASSSDYHYYYGMDVWGQGTTVTVSS
VL: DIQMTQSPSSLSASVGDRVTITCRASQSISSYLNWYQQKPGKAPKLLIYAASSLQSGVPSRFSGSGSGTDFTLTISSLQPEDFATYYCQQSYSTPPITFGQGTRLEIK
B7: H4sH21079P (antibody, V domains shown)
VH: EVQLVESGGGLVKPGGSLRLSCAASGFTFSNAWMSWVRQAPGKGLEWVGRIKTRADGGTTDYAAPVKGRFTISRDDSKNTLYLQLNSLKTEDTAVYYCTSHNWNYEDFDYWGQGTLVTVSS
VL: DIQMTQSPSSLSASVGDRVTITCRASQSISNYLNWYQQKPGKAPKLLIYAASSLQSGVPSRFSGSGSGTDFTLTISSLQPEEFATYYCQQSYSIPYTFGQGTKLEIK
B8: H4sH21080P (antibody, V domains shown)
VH: EVQLVESGGGLVQPGGSLRLSCAASGFTFSSYAMSWVRQAPGKGLEWVSGISGSGGTTYDADSVKGRFTISRDNSKNTLYLQMHSLRAEDTAAYYCAKDWNYGPYYYFGMDVWGQGTTVTVSS
VL: not shown
B9: H4sH17930N2 (antibody, V domains shown)
VH: EVQLVESGGGLVQPGGSLRLSCAASGFTFSYYALHWVRQAPGKGLEYVSAISGNGGSTYYADSVKGRFTISRDKSMSTVYLQVGSLRAEDMAVYYCARSYASSSDYHYYYGMDVWGQGTTVTVSS
VL: not shown
B10: H4sH21064P (antibody, V domains shown)
VH: EVQLVESGGGLVQPGGSLRLSCAASGFTFTFYAMHWVRQAPGKGLEYVSGISSNGGSTKYADSVKGRFTISRDNSKNTLYLQMGSLRAEDLAVYYCARSYASSSDYHYYYGMDVWGQGTTVTVSS
VL: not shown

Columns and labels:
[1] = target: HLA-A2 with HPV16E7:11-19 alanine scanning peptide […] (L15A) on pulsed T2 cells (human; human papillomavirus type 16); assay: FACS, T2, Ala scan
Experimental: (§1) Alanine scanning was performed to determine which residues in the HPV16E7:11-19 peptide were critical for antibody binding. T2 cells were pulsed with alanine scanning peptides and stained with HPV16E7:11-19 antibodies as described above.

[2] = target: HLA-A2 with HPV16E7:11-19 alanine scanning peptide […] (L13A) on pulsed T2 cells (human; human papillomavirus type 16); assay: FACS, T2, Ala scan
Experimental: as §1

[3] = target: monomeric HLA-A2:HPV16E7(11-19) peptide complex, soluble (human; human papillomavirus type 16); assay: SPR 25C, mAb captured
[4] = target: T1, HLA-A2/HPV16E7:11-19 on peptide-pulsed T2 cells (human; human papillomavirus type 16); assay: MSD cell binding, T2
Experimental: To determine anti-HLA-A2/HPV16E7 monoclonal antibody specificity, peptide-pulsed T2 cells loaded with target or off-target peptides (identified in the previous Example) were used. […] Approximately 6 million T2 cells per T-75 flask were cultured for 24 hours at 26° C. in 9 mL of AIM V® Medium containing 10 μg of human b2m and 100 μg of HPV16E7 peptide or off-target peptide (Tables 6 and 7). Peptide-loaded T2 cells were washed once with PBS without Ca2+/Mg2+ and counted. Approximately 10,000 cells per well of the peptide-loaded T2 or untreated T2 in cell washing buffer were seeded into the 96-well carbon electrode plates (MULTI-ARRAY high bind plate, MSD) and incubated for 1 hour at 37° C. to allow cells to adhere to the plate. Nonspecific binding sites were blocked using 2% BSA (w/v) in PBS for 1 hour at room temperature. […] Plates were incubated for 1 hour at room temperature, then washed to remove the unbound antibody using an AquaMax2000 plate washer (MDS Analytical Technologies). Plate-bound antibodies were detected with SULFO-TAG™-conjugated goat polyclonal anti-human IgG antibody specific for the Fc gamma fragment (Jackson Immunoresearch, Meso Scale Discovery) for 1 hour at room temperature. After washes, the plates were developed with the Read Buffer (MSD) according to manufacturer's recommended procedure, and the luminescent signals were recorded with a SECTOR Imager 600 (Meso Scale Discovery) instrument. The luminescence intensity, measured in relative light units (RLU), was recorded to indicate the binding intensity of each antibody at the range of concentrations.

[5] = target: HLA-A2 with off-target peptide USP47:691-699 on pulsed T2 cells (human); assay: FACS, T2, 10 ug/ml;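 also: Peptide-pulsed T2 cells held overnight at 26 °C, then stained with antibodies at 10 µg/ml, WI values reported as fold change versus unstained cells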
Experimental: (§2) T2 cells were then incubated overnight at 26° C., washed in staining buffer and stained with the indicated antibodies at a concentration of 10 μg/ml following the protocol described above. WI values were calculated and presented as fold change over unstained cells.

[6] = target: HLA-A2 with off-target peptide NBR1:357-365 on pulsed T2 cells (human); assay: FACS, T2, 10 ug/ml;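 also: Peptide-pulsed T2 cells held overnight at 26 °C, then stained with antibodies at 10 µg/ml, WI values reported as fold change versus unstained cells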
Experimental: as §2

[7] = target: T1, HLA-A2/HPV16E7:11-19 on peptide-pulsed …; assay: FACS, T2, 10 ug/ml;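 also: Peptide-pulsed T2 cells held overnight at 26 °C, then stained with antibodies at 10 µg/ml, WI values reported as fold change versus unstained cells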
Experimental: as §2

[8] = target: HLA-A2 with off-target peptide CAMKK1:388-396 on pulsed T2 cells (human); assay: FACS, T2, 10 ug/ml;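 also: Peptide-pulsed T2 cells held overnight at 26 °C, then stained with antibodies at 10 µg/ml, WI values reported as fold change versus unstained cells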
Experimental: as §2

[9] = target: T2, HLA-A2 with off-target peptide SH3GLB1:244-252 on pulsed T2 cells (human); assay: FACS, T2, 10 ug/ml
T2 construct: also called Endophilin-B1
Experimental: as §2

[10] = target: T3, HLA-A2 with off-target peptide CHPF:463:471 on pulsed T2 cells (human); assay: FACS, T2, 10 ug/ml
T3 construct: also called Chondroitin sulfate synthase 2
Experimental: as §2

[11] = target: T4, HLA-A2 with off-target peptide CBL:83-91 on pulsed T2 cells (human); assay: FACS, T2, 10 ug/ml
T4 construct: also called E3 ubiquitin-protein ligase CBL
Experimental: as §2

[12] = target: HLA-A2 with off-target peptide PKD1:2694-2702 on pulsed T2 cells (human); assay: FACS, T2, 10 ug/ml
Experimental: as §2

[13] = target: HLA-A2 with off-target peptide PPP4R4:20-28 on pulsed T2 cells (human); assay: FACS, T2, 10 ug/ml
Experimental: as §2

[14] = target: HLA-A2 with off-target peptide SBK3:285-293 on pulsed T2 cells (human); assay: FACS, T2, 10 ug/ml
Experimental: as §2

| Binder | FACS binding (fold over unstained) [1] | FACS binding (fold over unstained) [2] | Kd [3] | koff [3] | kon [3] | t½ [3] | EC50 [4] | Fold change over unstained [5] | Fold change over unstained [6] | Fold change over unstained [7] | Fold change over unstained [8] | Fold change over unstained [9] | Fold change over unstained [10] | Fold change over unstained [11] | Fold change over unstained [12] | Fold change over unstained [13] | Fold change over unstained [14] |
| --- | --- | --- | --- | --- | --- | --- | --- | --- | --- | --- | --- | --- | --- | --- | --- | --- | --- |
| B1 | 1150 fold | 527 fold | 23.1 nM | 0.00138 s⁻¹ | 59900 M⁻¹ s⁻¹ | 8.4 min | 1.1 nM | 13.3 fold | 2.2 fold | 1200 fold | 2.4 fold | 10.5 fold | 5 fold | 4.9 fold | 2.9 fold | 5.5 fold | 2.9 fold |
| B2 | – | – | 17.5 nM | – | – | – | 1.3 nM | – | – | – | – | – | – | – | – | – | – |
| B3 | – | – | 6.37 nM | 0.000819 s⁻¹ | 129000 M⁻¹ s⁻¹ | 14.1 min | 0.45 nM | – | – | – | – | – | – | – | – | – | – |
| B4 | 1020 fold | 530 fold | 17.6 nM | 0.00154 s⁻¹ | 87200 M⁻¹ s⁻¹ | 7.5 min | 2.1 nM | 0.6 fold | 3.6 fold | 1000 fold | 2 fold | 13.6 fold | 7.4 fold | 19.5 fold | 1.2 fold | 6.1 fold | 0.4 fold |
| B5 | 1010 fold | 490 fold | 18.3 nM | 0.00157 s⁻¹ | 85600 M⁻¹ s⁻¹ | 7.4 min | 2 nM | 1.3 fold | 3 fold | 986 fold | 1 fold | 15.2 fold | 10.9 fold | 23.9 fold | 1 fold | 9 fold | 0.8 fold |
| B6 | – | – | 10.2 nM | – | – | 14.5 min | 3.1 nM | – | – | – | – | – | – | – | – | – | – |
| B7 | – | – | 290 nM | 0.0109 s⁻¹ | 37400 M⁻¹ s⁻¹ | 1.1 min | 1.1 nM | – | – | – | – | – | – | – | – | – | – |
| B8 | – | – | 218 nM | 0.039 s⁻¹ | 179000 M⁻¹ s⁻¹ | 0.3 min | 0.22 nM | – | – | – | – | – | – | – | – | – | – |
| B9 | – | – | 9.57 nM | – | – | 14.6 min | – | – | – | – | – | – | – | – | – | – | – |
| B10 | – | – | 14.4 nM | – | – | 14.6 min | – | – | – | – | – | – | – | – | – | – | – |
